Source: the supplement of paper PMC10065799, “High-throughput profiling of sequence recognition by tyrosine kinases and SH2 domains using bacterial peptide display” (eLife, 2023)

Target: EPHB1 (UniProt P54762)
Assay: phosphorylation enrichment, bacterial display (enrichment ratio); higher = better substrate or ligand; peptides without Tyr show the background
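Note: 11-residue human phosphosite peptides and single-mutation variants displayed on the E. coli surface, counted by deep sequencing, each peptide's frequency after selection divided by its frequency in the unselected input library; frequency after pTyr selection over input frequency; kinase dosed for 20-30% of maximal phosphorylation in three min.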

Sequence of EPHB1 (P54762 whole entry, looked up): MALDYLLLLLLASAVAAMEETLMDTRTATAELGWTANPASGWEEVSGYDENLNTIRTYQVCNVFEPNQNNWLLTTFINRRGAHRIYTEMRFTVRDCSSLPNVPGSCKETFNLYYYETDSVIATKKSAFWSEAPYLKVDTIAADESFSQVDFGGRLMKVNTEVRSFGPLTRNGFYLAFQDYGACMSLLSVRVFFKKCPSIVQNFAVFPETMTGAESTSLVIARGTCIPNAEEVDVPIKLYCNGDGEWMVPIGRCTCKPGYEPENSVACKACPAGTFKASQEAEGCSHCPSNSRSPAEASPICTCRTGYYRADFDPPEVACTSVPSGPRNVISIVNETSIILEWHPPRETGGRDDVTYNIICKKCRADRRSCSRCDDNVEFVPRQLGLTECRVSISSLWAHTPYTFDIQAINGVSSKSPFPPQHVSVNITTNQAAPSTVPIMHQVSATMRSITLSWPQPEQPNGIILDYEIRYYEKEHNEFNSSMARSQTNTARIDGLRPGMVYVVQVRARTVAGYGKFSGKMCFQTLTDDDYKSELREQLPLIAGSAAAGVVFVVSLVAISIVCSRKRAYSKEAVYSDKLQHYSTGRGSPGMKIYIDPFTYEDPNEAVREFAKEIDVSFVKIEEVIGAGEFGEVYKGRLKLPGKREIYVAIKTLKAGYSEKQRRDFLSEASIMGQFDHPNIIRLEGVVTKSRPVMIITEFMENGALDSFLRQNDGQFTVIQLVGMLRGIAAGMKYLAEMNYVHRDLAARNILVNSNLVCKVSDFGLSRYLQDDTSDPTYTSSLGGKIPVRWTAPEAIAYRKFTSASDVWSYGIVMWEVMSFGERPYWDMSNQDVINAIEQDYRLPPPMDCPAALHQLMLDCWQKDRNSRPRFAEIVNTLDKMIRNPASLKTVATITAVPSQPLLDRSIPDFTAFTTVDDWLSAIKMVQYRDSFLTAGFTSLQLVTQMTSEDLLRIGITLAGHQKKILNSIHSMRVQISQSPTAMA

First: LKEIRYPPYTD [ALDH3B2_Y362_H361R]
Second: RHTRSYDFMEG [FGF7_Y56_YF]
The phosphorylation enrichment of the first is higher: 0.348 for the first, 0.293 for the second.

Compared with RGRSTYYWPSP [GAGE12J_Y9_R13S], SVTCTYCPALN [TP53_Y126_S127C] is lower in phosphorylation enrichment: 0.994 for the first, 0.38 for the second.

Going from EYFENYIEELK [PARP4_Y218] to CNSFRYGGGGG [NPPA_Y151], the phosphorylation enrichment falls from 0.73 to 0.35.

Compared with TKEPKYEGAGS [KIAA1210_Y1615], IVAREYFSEAD [CAMK2A_Y106_YF] is higher in phosphorylation enrichment: 0.368 for the first, 0.6 for the second.

First: HSSPVYVGRVV [TGM2_Y219_R214H]
Second: GEEIKDMLWLS [OTC_Y55_Y55D]
The phosphorylation enrichment of the first is higher: 2.08 for the first, 0.448 for the second.

First: NDDDVYRSLEE [VAV2_Y142]
Second: PLGPLYASSNP [INSR_Y992]
The phosphorylation enrichment of the first is lower: 0.6 for the first, 1.14 for the second.

Going from AGIENYTSRFG [NKD2_Y256] to VCDALYPPGPP, the phosphorylation enrichment falls from 0.817 to 0.465.

First: EVESPYEVRDY [GIGYF2_Y1168_H1171R]
Second: RPDSPYSRPHD [DOK2_Y271]
The phosphorylation enrichment of the first is higher: 0.785 for the first, 0.258 for the second.

First: EPVSDYINASI [PTPN11_Y304_N308S]
Second: RIFDFYSARKA [STOX1_Y858_YF]
The phosphorylation enrichment of the first is lower: 0.608 for the first, 1.1 for the second.

Compared with SFPPTYRFERG [INPPL1_Y661_YF], SLEKSYELLDG [ACTB_Y240_P243L] is higher in phosphorylation enrichment: 0.405 for the first, 0.575 for the second.

Compared with LKSEMYQKLLK [RGS13_Y146], PELINYHQPNS [BTK_Y361_H364P] is higher in phosphorylation enrichment: 0.709 for the first, 1.04 for the second.

Going from ISTAGYSFPEL [EDAR_Y406_I408F] to GSSEGYLHMVH [NIPBL_Y247_D246G], the phosphorylation enrichment falls from 0.526 to 0.333.

Going from NCLREYVAGRF [CRB1_Y711] to LFIDSYEKDVA [PGM1_Y521_YF], the phosphorylation enrichment rises from 0.469 to 1.34.

Compared with WDLSEYSFKDP [ITGA3_Y237_YF], AARVSYWLASG [DCHS1_Y1582_R1583W] is lower in phosphorylation enrichment: 0.682 for the first, 0.613 for the second.

First: LITTLYIDFLG [KCNQ1_Y267_G269D]
Second: CPSLLYSPVSS [CAMKK2_Y128_P127L]
The phosphorylation enrichment of the first is lower: 1.15 for the first, 4.73 for the second.

Compared with GEEIKYMLWLS [OTC_Y55], MGRVNYGAYIN [GLB1_Y485] is lower in phosphorylation enrichment: 0.592 for the first, 0.504 for the second.

LDPMVYMNDTS [PTK2B_Y834_K838T] gave a phosphorylation enrichment of 0.494.

Target: FGFR3 (UniProt P22607)
Assay: as above

Sequence of FGFR3 (P22607 whole entry, looked up): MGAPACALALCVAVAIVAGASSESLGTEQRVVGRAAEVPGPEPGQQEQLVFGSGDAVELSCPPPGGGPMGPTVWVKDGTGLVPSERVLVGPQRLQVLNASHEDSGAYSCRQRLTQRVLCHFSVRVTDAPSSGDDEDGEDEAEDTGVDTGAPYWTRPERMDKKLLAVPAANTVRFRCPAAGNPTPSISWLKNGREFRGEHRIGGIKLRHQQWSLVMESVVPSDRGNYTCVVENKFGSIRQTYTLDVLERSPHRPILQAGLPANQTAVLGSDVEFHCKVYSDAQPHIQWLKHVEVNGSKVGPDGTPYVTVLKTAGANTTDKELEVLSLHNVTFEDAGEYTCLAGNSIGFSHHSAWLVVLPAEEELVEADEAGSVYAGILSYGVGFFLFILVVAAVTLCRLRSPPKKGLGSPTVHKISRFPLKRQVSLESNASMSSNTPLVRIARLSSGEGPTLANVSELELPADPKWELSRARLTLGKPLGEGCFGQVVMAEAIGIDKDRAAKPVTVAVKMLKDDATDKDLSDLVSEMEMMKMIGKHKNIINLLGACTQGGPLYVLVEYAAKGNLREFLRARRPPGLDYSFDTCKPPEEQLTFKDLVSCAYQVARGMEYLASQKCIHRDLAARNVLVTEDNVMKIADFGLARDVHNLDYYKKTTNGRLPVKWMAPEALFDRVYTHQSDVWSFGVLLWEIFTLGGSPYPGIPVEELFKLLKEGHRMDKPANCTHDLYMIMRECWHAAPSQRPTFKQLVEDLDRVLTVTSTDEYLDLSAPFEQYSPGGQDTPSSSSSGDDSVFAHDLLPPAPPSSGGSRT

Going from LKEIRYPPYTD [ALDH3B2_Y362_H361R] to RHTRSYDFMEG [FGF7_Y56_YF], the phosphorylation enrichment rises from 0.702 to 0.726.

Compared with RGRSTYYWPSP [GAGE12J_Y9_R13S], SVTCTYCPALN [TP53_Y126_S127C] is lower in phosphorylation enrichment: 1.01 for the first, 0.46 for the second.

Going from EYFENYIEELK [PARP4_Y218] to CNSFRYGGGGG [NPPA_Y151], the phosphorylation enrichment falls from 1.69 to 0.469.

First: TKEPKYEGAGS [KIAA1210_Y1615]
Second: IVAREYFSEAD [CAMK2A_Y106_YF]
The phosphorylation enrichment of the first is lower: 0.385 for the first, 0.752 for the second.

Going from HSSPVYVGRVV [TGM2_Y219_R214H] to GEEIKDMLWLS [OTC_Y55_Y55D], the phosphorylation enrichment falls from 1.24 to 0.566.

Compared with NDDDVYRSLEE [VAV2_Y142], PLGPLYASSNP [INSR_Y992] is lower in phosphorylation enrichment: 0.793 for the first, 0.742 for the second.

First: AGIENYTSRFG [NKD2_Y256]
Second: VCDALYPPGPP
The phosphorylation enrichment of the first is higher: 0.529 for the first, 0.467 for the second.

Compared with EVESPYEVRDY [GIGYF2_Y1168_H1171R], RPDSPYSRPHD [DOK2_Y271] is lower in phosphorylation enrichment: 0.751 for the first, 0.485 for the second.

First: EPVSDYINASI [PTPN11_Y304_N308S]
Second: RIFDFYSARKA [STOX1_Y858_YF]
The phosphorylation enrichment of the first is lower: 0.651 for the first, 0.979 for the second.

Compared with SFPPTYRFERG [INPPL1_Y661_YF], SLEKSYELLDG [ACTB_Y240_P243L] is higher in phosphorylation enrichment: 0.476 for the first, 0.963 for the second.

Compared with LKSEMYQKLLK [RGS13_Y146], PELINYHQPNS [BTK_Y361_H364P] is higher in phosphorylation enrichment: 0.845 for the first, 0.857 for the second.

First: ISTAGYSFPEL [EDAR_Y406_I408F]
Second: GSSEGYLHMVH [NIPBL_Y247_D246G]
The phosphorylation enrichment of the first is higher: 0.532 for the first, 0.474 for the second.

Going from NCLREYVAGRF [CRB1_Y711] to LFIDSYEKDVA [PGM1_Y521_YF], the phosphorylation enrichment rises from 0.51 to 1.48.

First: WDLSEYSFKDP [ITGA3_Y237_YF]
Second: AARVSYWLASG [DCHS1_Y1582_R1583W]
The phosphorylation enrichment of the first is higher: 0.885 for the first, 0.781 for the second.

First: LITTLYIDFLG [KCNQ1_Y267_G269D]
Second: CPSLLYSPVSS [CAMKK2_Y128_P127L]
The phosphorylation enrichment of the first is lower: 1.19 for the first, 1.36 for the second.

Compared with GEEIKYMLWLS [OTC_Y55], MGRVNYGAYIN [GLB1_Y485] is lower in phosphorylation enrichment: 0.934 for the first, 0.499 for the second.

LDPMVYMNDTS [PTK2B_Y834_K838T] was tested, and the phosphorylation enrichment was 0.708.
